Source: article PMC9136124

Columns and labels:
[1] = biological target: FakA linker region, central domain (FakA_L) (Staphylococcus aureus); assay: AUC; sedimentation velocity of single constructs, c(s) model in SEDFIT, 20 mM Tris, pH 7.5, 200 mM NaCl, 5 mM DTT, 20 °C, 50,000 rpm, Rayleigh interference optics
[2] = biological target: FakA, kinase component of fatty acid kinase (Staphylococcus aureus) (Staphylococcus aureus); assay: SEC-SAXS; Superdex 200 10/300, 20 mM Tris, pH 7.5, 200 mM NaCl, 1% glycerol; 300 μl FakA (4 mg/ml), FakA_NL (6.2 mg/ml) or FakA_LC (6 mg/ml) loaded
[3] = biological target: FakA_LC (FakA_L and FakA_C domains connected) (Staphylococcus aureus); assay: as above
[4] = biological target: FakA_LC (FakA_L and FakA_C domains connected) (Staphylococcus aureus); assay: SEC; analytical size exclusion chromatography on a S-75 13/300 column, 20 mM Tris, pH 7.5, 200 mM NaCl; oligomerization state estimated from a standard curve of protein standards
[5] = biological target: FakA_NL (FakA_N and FakA_L domains connected) (Staphylococcus aureus); assay: SEC-SAXS; Superdex 200 10/300, 20 mM Tris, pH 7.5, 200 mM NaCl, 1% glycerol; 300 μl FakA (4 mg/ml), FakA_NL (6.2 mg/ml) or FakA_LC (6 mg/ml) loaded
[6] = biological target: FakA_NL (FakA_N and FakA_L domains connected) (Staphylococcus aureus); assay: SEC; analytical size exclusion chromatography on a S-75 13/300 column, 20 mM Tris, pH 7.5, 200 mM NaCl; oligomerization state estimated from a standard curve of protein standards
[7] = biological target: FakA_αβ bundle with helix (Staphylococcus aureus); assay: AUC; sedimentation velocity of single constructs, c(s) model in SEDFIT, 20 mM Tris, pH 7.5, 200 mM NaCl, 5 mM DTT, 20 °C, 50,000 rpm, Rayleigh interference optics
[8] = biological target: FakA C terminus, FakB substrate-binding domain (FakA_C) (Staphylococcus aureus); assay: AUC; FakB1 mixed with each isolated FakA domain; c(s) model by the text, 'sedimentation equilibrium' by the legend of Figure 4; 20 mM Tris, pH 7.5, 200 mM NaCl, 5 mM DTT, 20 °C; apparent KD from equilibrium concentrations of duplicate experiments, single site equilibrium model

Q: With “FakA linker region, central domain (FakA_L) (domain or fragment)” as the substance, how does the stoichiometry N [1] read?
A: 2

Q: For “FakA, kinase component of fatty acid kinase (Staphylococcus aureus) (enzyme)”, which stoichiometry N [2] is on record?
A: 2

Q: Which stoichiometry N [3] does the source give for “FakA_LC (FakA_L and FakA_C domains connected) (domain or fragment)” here?
A: 2

Q: And the stoichiometry N [4]?
A: 2

Q: “FakA_NL (FakA_N and FakA_L domains connected) (domain or fragment)” was tested. Which stoichiometry N [5] did it give?
A: 2

Q: And the stoichiometry N [6]?
A: 2

Q: For “FakA_αβ bundle with helix (domain or fragment)”, which stoichiometry N [7] is on record?
A: 2

Q: For “FakB1, fatty acid binding protein component of fatty acid kinase (Staphylococcus aureus) (from UniProt X5EH37 1-288) (natural protein)”, which Kd [8] is on record?
A: 16 µM

Q: What about the stoichiometry N [8] of the same substance?
A: 1
